In general, Kd refers to the concentration at which binding is half-saturated. As usually defined, the IC50 is the point on the concentration scale where inhibition reaches its midpoint.

Assay [1] deals with T1, human prostate specific membrane antigen (PSMA) (human, UniProt Q04609 1-750).
T1 construct: Endogenous PSMA on the human prostate cancer cell lines LNCaP, 22Rv1, MDA-PCA-2B and VCAP; also called human PSMA
As to the kind of experiment: binding to LNCaP cells (flow cytometry, FIG. 8C).

The target in assay [2] is T1, human prostate specific membrane …. Description: flow cytometry, direct binding to LNCaP cells (relative cell binding, MFI, against concentration in nM); the table under the plot labels the half-maximal concentration IC50; unit taken from the concentration axis. For orientation: Flow cytometry measures light scatter and fluorescence of single cells or particles in a stream.

The target is the same in assay [3]. The description is as above. This is another data set of the same source.
Assay [4] deals with T2, cynomolgus monkey PSMA-Fc fusion (human; cynomolgus monkey, PSMA is a glycosylated homodimer. Only one subunit is given.).
T2 construct: also called cyno PSMA Fc; cynoPSMA-Fc; not shown: Human IgG1 Fc domain, which sits N-terminal of the PSMA ECD, and the junction with the Prescission protease site
T2 chain: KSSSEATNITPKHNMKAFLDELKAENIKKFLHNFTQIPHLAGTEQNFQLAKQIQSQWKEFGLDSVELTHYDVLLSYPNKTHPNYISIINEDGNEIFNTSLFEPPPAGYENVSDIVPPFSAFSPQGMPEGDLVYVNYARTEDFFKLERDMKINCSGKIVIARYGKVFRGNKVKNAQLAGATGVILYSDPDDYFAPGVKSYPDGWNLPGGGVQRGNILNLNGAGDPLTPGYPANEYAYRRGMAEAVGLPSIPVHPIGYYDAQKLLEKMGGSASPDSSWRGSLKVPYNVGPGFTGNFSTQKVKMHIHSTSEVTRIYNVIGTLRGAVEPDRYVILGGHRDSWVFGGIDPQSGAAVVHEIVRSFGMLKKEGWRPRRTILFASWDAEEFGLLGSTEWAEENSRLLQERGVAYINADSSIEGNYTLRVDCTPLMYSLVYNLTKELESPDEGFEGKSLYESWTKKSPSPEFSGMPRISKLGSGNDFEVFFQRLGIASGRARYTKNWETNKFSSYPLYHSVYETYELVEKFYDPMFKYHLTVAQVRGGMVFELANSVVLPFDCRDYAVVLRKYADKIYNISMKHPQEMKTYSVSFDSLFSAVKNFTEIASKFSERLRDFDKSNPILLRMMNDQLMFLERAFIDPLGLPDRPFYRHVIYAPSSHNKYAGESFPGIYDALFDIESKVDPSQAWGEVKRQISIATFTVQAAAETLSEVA
As to the kind of experiment: binding to cynoPSMA-Fc; method not described.

In assay [5] the target is T1, human prostate specific membrane …. As to the kind of experiment: flow cytometry, direct binding to LNCaP cells (relative cell binding, MFI, against concentration in nM); the table under the plot labels the half-maximal concentration IC50; unit taken from the concentration axis. This is another data set of the same source.
Assay [6] concerns the target T2, cynomolgus monkey PSMA-Fc fusion. Description: binding to cynoPSMA-Fc; method not described.
Assay [7] deals with T1, human prostate specific membrane …. Description: binding to LNCaP cells (flow cytometry, FIG. 9C).

Residue numbers refer to the chain shown, from its start. Like-named read-outs stand apart in the source and are kept apart here.

T1 sequence (Q04609 whole entry): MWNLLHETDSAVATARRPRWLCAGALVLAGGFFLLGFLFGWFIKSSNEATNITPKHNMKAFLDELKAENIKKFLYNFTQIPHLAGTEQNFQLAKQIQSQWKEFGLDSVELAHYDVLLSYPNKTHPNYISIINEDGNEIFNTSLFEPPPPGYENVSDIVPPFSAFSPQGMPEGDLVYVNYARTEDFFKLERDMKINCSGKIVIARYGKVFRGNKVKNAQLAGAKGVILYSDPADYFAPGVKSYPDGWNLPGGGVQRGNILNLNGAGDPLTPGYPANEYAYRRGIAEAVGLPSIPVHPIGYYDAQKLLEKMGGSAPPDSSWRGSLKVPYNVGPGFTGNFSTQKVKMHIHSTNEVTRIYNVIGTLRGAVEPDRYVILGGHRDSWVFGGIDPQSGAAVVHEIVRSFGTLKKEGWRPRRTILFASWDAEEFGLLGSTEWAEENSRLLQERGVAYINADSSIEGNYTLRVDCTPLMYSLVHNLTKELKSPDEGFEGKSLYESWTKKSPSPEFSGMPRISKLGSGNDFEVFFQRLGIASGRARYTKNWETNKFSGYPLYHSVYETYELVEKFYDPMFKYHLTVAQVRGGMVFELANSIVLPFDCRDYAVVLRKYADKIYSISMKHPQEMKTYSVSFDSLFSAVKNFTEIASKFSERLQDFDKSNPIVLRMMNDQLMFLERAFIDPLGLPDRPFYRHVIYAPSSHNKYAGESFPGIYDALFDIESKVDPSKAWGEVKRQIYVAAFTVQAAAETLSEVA

B1: P233FR9_H10 PSMA binding FN3 domain (designed binder)
chain: LPAPKNLVVSRVTEDSARLSWTAPDAAFDSFAIGYWEWDDDGEAIVLTVPGSERSYDLTGLKPGTEYPVYIAGVKGGQWSFPLSAIFTT
notes: His-tagged, expressed in E. coli; also called H10 centyrin; not shown: C-terminal poly-histidine tag
On to B1, for which the Kd in assay [1] is around 3 pM; in assay [4], 692000 pM. Besides, the IC50 in assay [2], in assay [3] and in assay [5] was 598 pM throughout.

B2: P233FR9_H10_v18 (designed binder)
chain: B1 chain with G34A, E53C
notes: Optimized Centyrin; not shown: C-terminal poly-histidine tag
B2 gave an IC50 in assay [2] of 608 pM.

B3: P258AR6P1071_D02 (designed binder)
chain: LPAPKNLVVSRVTEDSARLSWAIDEQRDWFESFLIQYQESEKVGEAIVLTVPGSERSYDLTGLKPGTEYTVSIYGVYHVYRSNPLSAIFTT
notes: not shown: C-terminal poly-histidine tag
In the case of B3, the values for the Kd in assay [6] and in assay [7] were 100 pM and around 25 pM, respectively. This molecule also came in with an IC50 in assay [5] of 1320 pM.
